# Data from the nanobody polyreactivity screen of Harvey et al. (2022).
# Test: yeast display, Sf9 membrane polyspecificity reagent, FACS + sequencing; frameworks hold sequencing errors
# Procedure, shortened: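 Using colony PCR, genes from sorted yeast display clones were amplified, then sequenced on MiSeq at 2 × 250 and filtered by CDR length. The clones had been stained with 10% biotinylated, detergent-solubilized Sf9 membrane reagent for 1 hour at 4 °C and sorted by FACS into low and high (top ~1%) gates on anti-HA and streptavidin fluorescence. Polyreactivity labels come from the gate of origin.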
row,Sequence,polyreactivity (PSR sort gate)
1,QVHLVESGGGLVQAGGSLRLSCAASGRTFGWNVMGWYRPAPGKERELVAAISGSGGSTYYADSVKGRFTISRDNAKNPVYLQMNSLKPEDTAVYYCAALYGPGREYDYWGQVTQVTVSS,low polyreactivity
2,QVQLVESGGCLVQAGRSLRLSCAASGRTFPTYAMGWYRQAPGKERELVAAIRISGGRTYYADSVKGRFTISRDISKNTVYLQMNSLKPEDTAVYYCATRDRAGYYYWGQGTQVTVSS,high polyreactivity
3,QVQLVESGGGLVQAGGSLRVSCAASGSTCSQYVMGWYRQAPGKERELVAAISGGYRTYYADSVKGRFTISRDNAKNTVYLQMNSLKPEDTAVYYCAAEVLKTRWSYDYWGQGTQVTVSS,high polyreactivity
4,QVQLVESGGGLVQAGGSLRLSCAPSGSTFFSKTMGWYRQAPWKERELVAAINDSGTSTYYADSVKRRFTISRDNSKKTVYLQMNSLKPEDTAVYYCAAYPSGWYDYWGQGTQVTVSS,low polyreactivity
5,QVQLVESGGGLVQAGGSLRLSCAASGSTFETNAMGWYRQAPGTERELVAAIRWSTGNTYYADSVKGRFTISRDNAKNTVYLQMNSLKPEDTAVYYCAAYKGKHYNEGYWGQGTQVTVSS,low polyreactivity
6,QVQLVESGGGLVQAGGSLRLSCAASGRIFVSYVMGWYRPAPGKEREFVAAIRRSGSSTYYADSVKGRFTISRDNAKNTVYLQINRLKPEDTAVYYCAAYQRSRTLRRYDYWGQGTQVTVSS,high polyreactivity
7,QVQLVESGGGLVQAGGSLRLSCAASGSTFVVNAMGWYRQAPGKERELVAAITQDGDGTYYADSVKGRFTISRDNAKNTVYLQMNSLKPEDTAVYYCAAYPFYGPYDEFDYWGQGTQVTVSS,low polyreactivity
8,QVHLVESGVGLVQAGGSLRLRCAASGRTLYYYAMGWYRQAPGKQSELVAAINSGGSTKYADSVKGRFTISRDNAKNTVYLQMHSLKPEDTAVYFCAARGYIRGGYYWGQGTQVTVSS,high polyreactivity
9,QVQLVESGGGLVQAGGSLRLSCAASGIIFSSYAMGWYRQAPGKERELVAAITSGGNTNYADSVKGRFTISRDNAKNTVYLQMNSLKTEDISVYYCNADTSFVWLAWHQYGFGYWGQGTQVTLSS,low polyreactivity
10,QVQHVESGGGLVKAGGSLRLSCAASGFTFGVYAMGWYRLAPGKERELVAAISRRGTSTYYADSVKGRFTISRDNAKNTVYLQMNSLKPEDTAVYYCNARRYQVTVDHWGQGTQVTVSS,high polyreactivity
11,QVQLVESGVGLVQAGGSLRLSCAASGIIFRYYAMGWYRQAPGKERELVAAISSSGVSTYYADSVKGRFTISRDNAKNTVYLQMNSLKPEDTAVYYCNAVIWVRQYFSRSSSNYWGQGTQVTVSS,high polyreactivity
12,QVQLVESGGGLVQAGGSLRLSCAASGPIFAYNAMGWYRQATGKERELVAAISYSGGSTYYPDSVKGRFTISRDNEKNSVYLQMNSLKPEDTAVYYCNAVYRYRTYRYDYWGQGTQVTVSS,high polyreactivity
13,QVQLVESGGGLVQAGGSLRLSCAASGSIFTVYGMGWYRQAPGKERELVAAISRSGGSTYYADSVKGRFTISRDNAKNTVYLQMNSLKPEDTAVYYCNADLVYNTLIYSGGDEYDYWGQGTQVTVSS,high polyreactivity
14,QVQLVESGGGLVQAGGSLRLSCAASGRIFYKYAMGWYRQAPGKERELVAAISSGGNTNYADSVKGRFTISRDNAKNTVYLQMNSLKPEDTAVYYCNAKRAYYRGYYPDNYWGQGTQVTVSS,high polyreactivity
15,QVQLVESCGGLVQAGGSLRLSCAASGSIFRSFAMGWYREAPWKERELVAAISSGGRTKYADSVKGRFTISRDNAKNTVYLQMNSLKPEDTAVYYCAARVNVKYYGFYYWGQGTQVTVSS,high polyreactivity
16,QVQLVESGGGLDQAGGSLRLSCAASGYIFYRNAMGCYRQAPGKERELVAAITYTGGRTYYADSVKGRFTISRDNAKNTVYLQMNSLKPEDTAVYYCNADGRVFVVRPYYDYEYWGQGTQVTVSS,low polyreactivity
17,QVQLVESGGGLVQAGGSLRLSCAASGGIFYYYTMGWYRQAPGKERELVAVISSSGSTYYADSVKGRFTISRDNAKNTVYLQMNSLKPEDTAVYYCNALGWYGDYDYWGQGTQVTVSS,low polyreactivity
18,QVQLVESGGGLVQAGGSLRLTCAASGSIFYLNAMGWYRQAPGKERELVATISNGGSTNYADSVKGRFTISRDNAKNTVYLQMYSLKPEDTAVYYCAAASGGTVVGEGDYWGLGTQVTVSS,low polyreactivity
19,QVQLVESGGGLVQAGGSRRLSCAASGRTFYLYAMGWYIQARGQERELVAANTTSGGSTYYADSVKGRFTISRDKAKNTVYLQMHSLKPEDTAVYYCNKDLSTTKFDDWGQGTQVTVSS,low polyreactivity
20,QVQLVESGGGLVQAGGSLRLSCAASGNTFTRNAMGWYRQAPGKERELVAAITGRGGTYYADSVKGRFTISRDNAKNTVYLQMNSLKPEDTAVYYCNAVYRSSYQKGSMDYWGQGTQVTVSS,high polyreactivity
21,QVQLVESGGGLVQAGGSLRLSCAASGFTLDWYVMGWYRQAPGKERELVAAISSSGGRTYYADSVKGRFTISRDNAKNTVSLQLNSLKPEDTAVYYCAARNKYGGYPYGYDYWGQGTQVTVSS,high polyreactivity

row,Sequence,polyreactivity (PSR sort gate)
1,QVQLVESGGGLVQAGGSLRLSCAASGSNFGPYAMGWSRPAPGKEMELVASITWTGGRTYYADSVKGRFTISLDNAKNTVYLQMNSLKPEDTAVYYCAADYSPSTWYLYYTLYYYWGQGTQVTVSS,low polyreactivity
2,QVQLVESGGGLVQAGGSLRLSCAASGFIFDTYAMGWYRQAPGKERELVAAISWTGTDTYYADSVKGRFTISRDNAKNTVYLQMNSLKPEDTAVYYCAARSRYKYSPSGDYWGQGTQVTVSS,high polyreactivity
3,QVQLVESGGGLVQAGGSLRLSCAASGFTFAYNAMGWYRPAPGKERELVAAITTRTGTTYYADSVKGRFTISRDNAKNTVYLQMNSLKPEDTAVYYCAKRGYYRYYYWGQGTLVTVSS,high polyreactivity
4,QVQLVESGGGLVQAGGSLRLSCAASGIIFARNAMGWYRQAPGKERELVATISRNGGRTYYADSVKGRFTISRDNAKNTVYLQMNSLKPEDTAVYYCAAGFYLRAVWMDYWGQGTQVTVSS,high polyreactivity
5,QVQLVESGGGLVQAGGSLRLICAASGFTFVANAMGWYRPAPGKERELVAVIDWDEGSTYYADSVKGRFTISRDNAKNTVYLQMNSLKPEETAVYYCNADGYSPDRYDYYYRYYYWGQGTQVTVSS,low polyreactivity
6,QVQLVESGGGLVQAGGSLRLSCAASGRILYWYALGWYRQAPGKERELVAAISRSGGSTSYADSVKGRFTISRDNAKNTVYLQMNSLKPEDTAVYYCAVDRFWRPVRSGTTYDYWGQGTQVTVSS,low polyreactivity
7,QVQLVESGGGLVQAGGSLRLSCAASGSTFSGYAMGWYRQAPGKARELVAAISWRGVRTYYADSVKGRFTISRDNAKNTVYLQMNSLKPEDTAVSYCAAVRYITKEFSWGQGTQVTVSW,high polyreactivity
8,QVQLVESGGGLVQAGGSLRLSCAASGRIGPNVMGWYRQPPGKERELVARITWRGGSTYYADSVKGRFTISRDNAKNTVYLQMNSLKPEDTAVYYCNARGHGGWGTSMYYWGQGTQVTVSS,high polyreactivity
9,QVQLVESGGGLVQAGGSLRLSCAASGITFGRNTMGWSRQAPGKEREMVASITRGGNTNYADSVKGRFTISRDNAKNTVYLQLNSLKPEDTAVYYCAARSTYRVSHVDYWGQGTQVTVSS,low polyreactivity
10,QVQLVESGGGLVQAGGSLRLSCAASGSTFIIYAMGWYRQAPGKERELVAAISWSGGSTYYADSVKGRFTISRDNAKNTVYLQMNSLKPEDTAVYYCNAARYYTPWRTWYDYWGQGTQVTVSS,high polyreactivity
11,QVQLVESGGGLVQAGGSLRLSCAASGSTIYPYAMGWYRQAPGKERELVAAISSGGRTYYADSVKGRFTISRDNAKNTVYLQMNSLKPEDTAVYYCAARVTKKYRRTYDYWGQGTQVTVSS,high polyreactivity
12,QVQLVESGGGLVQAGGSLRLSCAASGFIYKFYAMGWYRQEPGKVRELVAAISDSGGSTYYADSVKGRFTISRDNAKNTVYLQMNSLKPEDTAVYYCNADWSWNNYYDFDYWGLGTQVTVSS,low polyreactivity
13,QVQLVESGGGLVQAGGSLRLTCAPSVRIFTIYDMGRYRQAPGKERELVATITYSSGSTSYADSVKGRFTISRDNAKNTVYLLMNSLKPEDTAVYYCAKKYYSGYGYWGQGTQVTVSS,low polyreactivity
14,QVQLVESGGGLVQAGGSLRLSCAASGRIFRYYAMGWYRQAPGKERELVAAISSRGGSTYYADSVKGRFTISRDNAKNSVYLQMNSLKPEDTAVYFCDKAVFYGPSERNYGLDYWGQGTQVTVSS,high polyreactivity
15,QVQLVESGGGIVQEGRSLSISCAASGSTFYTYAMGWYRPAPGKERELVAAITQSGGRTYYADSVKGRFTISRDNANNTVYLEMNSLKPEDTAVDYCNAPPYTGYDWGQGTQVSVSS,high polyreactivity
16,QVQLVESGGGLVQAGGSLRLSCAASGSIFWAYTMGWYRQAPGKERELVAAISASGGSTYYADSVKGRFTISRDNAKNTVYLQMNSLKPEDTAVYYCAAVYDLGYYGPIWAIVLDDYWGQGTQVTVSS,low polyreactivity
17,QVQLVESAAGLVQAGGSLRLSCAASGSTFAGNAMGWYRQAPGKERELVAAIDSSTGSTYYADSVKGRFTISRDNAKNTVYLQMNSLKPEDTAVYYCNKTSFLVKLDYWGQGTQVTVSS,low polyreactivity
18,QVQLVESGGGLVQAGGSLRLSCAASGIILYFYDMGWYRQAPGKERELVAVITGGGGSTYYADSVKGRFTISRDNAMNTVYLQMNSLKPEDTAVYYCAALPWFPDEEYDYWGQGTQVTVSS,high polyreactivity
19,QVQLVESGGGLVQAGGSLRLSCAASGSTFTGYAMAWYRQAPGKERELVAAISSDGGSTYYADSVKGRFTMSRDNAKNTVYLQMNSLKPEDTAVYYCAALVYVSGYGYYYWGQGTQVTVSS,high polyreactivity
20,QVQLVESGGGLVQAGGSLRLSCAASGSTLASYAMGWYSQAPGKERELVAVIDSGGSTYYADSVKGRFTISRDNAKNSVYVQMNSLKPEDTAVYDCAAGWEFSGVLTLFGYWGQGTQVTVSS,low polyreactivity
